Results: publication PMC6855452

Assays:
[1] = target: LY6A (C57BL/6J allele), expressed from Ly6a cDNA in HEK293T cells (mouse (C57BL/6J)) (UniProt P05533); assay: bound vector genome assay (qPCR of viral genomes on cells); HEK293T cells transfected with Ly6 cDNA or left untransfected; 48 h later chilled to 4°C, recombinant AAV at 10^5 vg/cell for one hour, washed three times with cold PBS; vector genomes normalized to cell genomes
[2] = target: LY6A, endogenous on primary brain microvascular endothelial cells of C57BL/6 mice (mouse (endogenous in C57BL/6 BMVECs)) (UniProt P05533); assay: bound vector genome assay (qPCR of viral genomes on cells); primary BMVECs of C57BL/6 mice treated with SaCas9 vectors with sgRNAs against Ly6a or Ly6c1 or no sgRNA; 4°C, one hour, AAV at 10^6 vg/cell; normalized to cells treated with a vector lacking a sgRNA

Substance: AAV-PHP.B capsid (engineered AAV9 variant) (from UniProt Q6JC40 1-736; Q6JC40 1-736; Q6JC40 1-736) (complex)
- fold increase in binding to cells on Ly6a expression [1]: > 50 fold

Substance: AAV-PHP.eB capsid (engineered AAV9 variant, further evolved from AAV-PHP.B) (from UniProt Q6JC40 1-736; Q6JC40 1-736; Q6JC40 1-736) (complex)
- reduction in binding to BMVECs on Ly6a disruption (~50% reduction of LY6A) [2]: 50%
- fold increase in binding to cells on Ly6a expression [1]: > 50 fold
